Source: paper PMC5373496 (Science (New York, N.Y.), 2016)
Each block holds one binder with its values, some of them ahead of it.

Columns and labels:
[1] = target: T1, Cdc37 tagged at its N terminus with T4 lysozyme (human, UniProt Q16543 1-378); assay: cryo-EM structure
T1 sequence (looked up): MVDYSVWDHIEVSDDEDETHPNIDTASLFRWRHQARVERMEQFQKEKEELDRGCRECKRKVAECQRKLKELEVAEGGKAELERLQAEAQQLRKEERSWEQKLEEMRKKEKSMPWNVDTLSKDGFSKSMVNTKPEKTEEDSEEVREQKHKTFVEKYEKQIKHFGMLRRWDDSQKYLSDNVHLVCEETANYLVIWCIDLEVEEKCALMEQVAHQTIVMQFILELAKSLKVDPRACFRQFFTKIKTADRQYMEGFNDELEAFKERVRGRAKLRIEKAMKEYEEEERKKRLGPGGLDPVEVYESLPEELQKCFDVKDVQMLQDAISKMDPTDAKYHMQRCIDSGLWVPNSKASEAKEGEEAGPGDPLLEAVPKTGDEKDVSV

[2] = target: T2, Cdc37 of the yeast complex with T4 lysozyme-tagged Cdk4 (human, UniProt Q16543 1-378); assay: cryo-EM structure
T2 sequence (looked up): T1 sequence (looked up)

- binding result [1]: binds
B1: Cdk4 of the yeast complex with T4 lysozyme-tagged Cdc37 (natural protein, human, UniProt P11802 1-303, looked up)
chain: MATSRYEPVAEIGVGAYGTVYKARDPHSGHFVALKSVRVPNGGGGGGGLPISTVREVALLRRLEAFEHPNVVRLMDVCATSRTDREIKVTLVFEHVDQDLRTYLDKAPPPGLPAETIKDLMRQFLRGLDFLHANCIVHRDLKPENILVTSGGTVKLADFGLARIYSYQMALTPVVVTLWYRAPEVLLQSTYATPVDMWSVGCIFAEMFRRKPLFCGNSEADQLGKIFDLIGLPPEDDWPRDVSLPRGAFPPRGPRPVQSVVPEMEESGAQLLLEMLTFNPHKRISAFRALQHSYLHKDEGNPE

- binding result [2]: binds
B2: Cdk4 tagged at its C terminus with T4 lysozyme (natural protein, human, UniProt P11802 1-303, looked up)
chain: B1 chain
